# Literature values as cited in paper PMC4426669.
# Molecular target: eIF2B1 (Homo sapiens) (UniProt Q14232)
substance,measurement,value
eIF2B1 (from UniProt Q14232),Kd,< 1 nM
